The target of this series is recombinant human AGO2 (rhAGO2) (Homo sapiens, UniProt Q9UKV8 1-859). Briefly: EMSA; 25 C; EMSA: 10 mM HEPES-KOH pH 7.4, 50 mM KCl, 1 mM DTT, 3% Ficoll-400, 0.1 mg/ml BSA, 10 nM RNA, 0-200 nM hAGO2, 30 min at 25 or 37 C, 6% native gel at 4 C; RISC assembly in HEK293T lysate at 0.75-3.75 mM Mg2+, 25 or 37 C. The conditions noted are these: protein: recombinant; tags: N-terminal FLAG and His; label: 32P; single strand. (In general: Mobility shift assays separate free from complexed probe on a gel.)
Sequence of recombinant human AGO2 (rhAGO2) (Q9UKV8 whole entry): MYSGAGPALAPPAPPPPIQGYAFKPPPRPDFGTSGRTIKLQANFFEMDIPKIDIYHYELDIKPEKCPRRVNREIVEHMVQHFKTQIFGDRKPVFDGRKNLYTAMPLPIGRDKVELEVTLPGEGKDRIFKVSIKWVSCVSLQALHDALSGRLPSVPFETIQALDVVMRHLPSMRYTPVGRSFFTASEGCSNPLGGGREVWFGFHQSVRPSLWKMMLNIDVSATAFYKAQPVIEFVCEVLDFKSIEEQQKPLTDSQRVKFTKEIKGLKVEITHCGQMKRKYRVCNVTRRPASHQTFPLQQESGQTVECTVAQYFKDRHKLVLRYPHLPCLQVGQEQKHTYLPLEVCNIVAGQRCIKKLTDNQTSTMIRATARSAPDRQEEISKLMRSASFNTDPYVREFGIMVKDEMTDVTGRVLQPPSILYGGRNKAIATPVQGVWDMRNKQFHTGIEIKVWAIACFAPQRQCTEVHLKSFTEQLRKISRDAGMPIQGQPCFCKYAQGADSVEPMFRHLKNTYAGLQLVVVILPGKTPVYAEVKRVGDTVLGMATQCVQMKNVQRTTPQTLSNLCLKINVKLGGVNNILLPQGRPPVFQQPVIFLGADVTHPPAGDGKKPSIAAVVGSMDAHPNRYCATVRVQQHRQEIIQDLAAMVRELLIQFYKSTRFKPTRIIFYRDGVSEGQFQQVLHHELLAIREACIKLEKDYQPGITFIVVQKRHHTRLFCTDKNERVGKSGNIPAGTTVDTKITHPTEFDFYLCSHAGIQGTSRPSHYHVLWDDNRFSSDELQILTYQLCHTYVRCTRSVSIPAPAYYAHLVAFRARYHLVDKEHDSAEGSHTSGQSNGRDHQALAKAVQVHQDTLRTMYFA

What is called Kd is a measure of binding affinity in units of concentration. Consider UGGAAUGUAAAGAAGUAUGUA (ssRNA) [miR-1 guide ssRNA], for which the Kd is ~44.4 nM.

Source of the values: paper PMC4627090, “Slicer-independent mechanism drives small-RNA strand separation during human RISC assembly”.
